{"source": "IntAct's records for PubMed 17568776", "parents": {"B1": {"name": "RING finger and CHY zinc finger domain-containing protein 1 (Homo sapiens), Q96PM5 (parent)", "chain": "MAATAREDGASGQERGQRGCEHYDRGCLLKAPCCDKLYTCRLCHDNNEDHQLDRFKVKEVQCINCEKIQHAQQTCEECSTLFGEYYCDICHLFDKDKKQYHCENCGICRIGPKEDFFHCLKCNLCLAMNLQGRHKCIENVSRQNCPICLEDIHTSRVVAHVLPCGHLLHRTCYEEMLKEGYRCPLCMHSALDMTRYWRQLDDEVAQTPMPSEYQNMTVDILCNDCNGRSTVQFHILGMKCKICESYNTAQAGGRRISLDQQ"}}}
{"variants_of": "B1", "conditions": "with kcc2a_human CAMK2A"}
{"variant": "MAATAREDGASGQERGQRGCEHYDRGCLLKAPCCDKLYTCRLCHDNNEDHQLDRFKVKEVQCINCEKIQHAQQTCEECSTLFGEYYCDICHLFDKDKKQYHCENCGICRIGPKEDFFHCLKCNLCLAMNLQGRHKCIENVSRQNCPICLEDIHTARVVAHVLPCGHLLHRTCYEEMLKEGYRCPLCMHSALDMTRYWRQLDDEVAQTPMPSEYQNMTVDILCNDCNGRSTVQFHILGMKCKICESYNTAQAGGRRISLDQQ", "note": "[S155A]", "effect of a mutation on the interaction": "disrupting interaction"}
{"variant": "MAATAREDGASGQERGQRGCEHYDRGCLLKAPCCDKLYTCRLCHDNNEDHQLDRFKVKEVQCINCEKIQHAQQTCEECSTLFGEYYCDICHLFDKDKKQYHCENCGICRIGPKEDFFHCLKCNLCLAMNLQGRHKCIENVSRQNCPICLEDIHASRVVAHVLPCGHLLHRTCYEEMLKEGYRCPLCMHSALDMTRYWRQLDDEVAQTPMPSEYQNMTVDILCNDCNGRSTVQFHILGMKCKICESYNTAQAGGRRISLDQQ", "note": "[T154A]", "effect of a mutation on the interaction": "disrupting interaction"}
